Source: paper PMC6993239

How the values were obtained:
[1] = biological target: recombinant human FcγRI, histidine-tagged (human) (UniProt P12314); assay: SPR
[2] = biological target: recombinant human FcγRI, histidine-tagged (human) (UniProt P12314); assay: SPR; Biacore T200; His-tagged huFcγRI (0.8 nM) captured on an anti-histidine antibody CM5 chip; pertuzumab or conjugates 0.78-100 nM as analyte, 5 min association, 5 min dissociation, 30 μL/min; HBS-P+ with 50 μM EDTA; 1:1 fit (RI set to 0)
[3] = biological target: histidine-tagged mouse FcγRI (mouse) (UniProt P26151); assay: SPR; Biacore T200; His-tagged muFcγRI (2.4 nM) captured on an anti-histidine antibody CM5 chip; pertuzumab or conjugates as analyte, association and dissociation 120 s each; steady-state analysis
Chain of UniProt P26151 (P26151 25-297): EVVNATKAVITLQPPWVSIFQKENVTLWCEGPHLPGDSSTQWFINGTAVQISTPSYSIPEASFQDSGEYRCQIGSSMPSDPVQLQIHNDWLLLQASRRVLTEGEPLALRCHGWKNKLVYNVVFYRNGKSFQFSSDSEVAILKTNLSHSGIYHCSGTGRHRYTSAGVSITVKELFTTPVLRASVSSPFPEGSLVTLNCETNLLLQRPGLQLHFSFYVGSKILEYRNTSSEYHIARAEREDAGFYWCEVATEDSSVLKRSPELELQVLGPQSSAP

Chain of UniProt P12314 (P12314 16-292): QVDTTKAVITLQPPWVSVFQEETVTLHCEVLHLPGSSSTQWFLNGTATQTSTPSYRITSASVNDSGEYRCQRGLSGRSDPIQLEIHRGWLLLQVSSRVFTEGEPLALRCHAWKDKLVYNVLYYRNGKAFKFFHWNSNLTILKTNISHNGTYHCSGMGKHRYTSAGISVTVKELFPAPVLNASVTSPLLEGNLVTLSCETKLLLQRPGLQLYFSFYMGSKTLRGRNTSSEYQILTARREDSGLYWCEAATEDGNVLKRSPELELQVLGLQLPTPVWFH

Substance	koff [1]	Kd [2]	interaction half-time [2]	Kd [3]
DFO-^nsspertuzumab (antibody)		0.0041 µM	7.4 min	0.25 µM
DFO-^sspertuzumab-EndoS (antibody)		0.0174 µM	3 min	1.1 µM
DFO-^sspertuzumab-βGal (antibody)			8 min	0.21 µM
native pertuzumab (antibody)			7.3 min	0.25 µM

Continued, values first:

koff [1]	Kd [2]	interaction half-time [2]	Kd [3]	Substance
0.00156 s⁻¹				DFO-^nsspertuzumab
0.00387 s⁻¹				DFO-^sspertuzumab-EndoS
